Data published in publication PMC9712074 (Cell Reports, 2022).
Substitutions are numbered along the chain they refer to.

B1: BD55-5226 (antibody, V domains shown)
VH: EVQLVESGGGLVKPGGSLRLSCAASGFTFSSYSMNWVRQAPGKGLEWVSSISMTSSYRHYADSVRGRFTISRDNANNSLFLQMNSLRAEDTAVYFCARDSNLRTGDANDYWGQGTLVTVSS
VL: not shown
B2: BD55-5223 (antibody, V domains shown)
VH: EVQLLESGGGWVQPGGSLRLSCAASGFTFSSYAMSWVRQAPGKGLEWVSAISNTGGSTYYADSVKGRFTVSRDDSKNTLYLQMNSLRAEDTAVYYCAKNWDSIGYTSGWQHLDWFDPWGQGTLVTVSS
VL: DIQMTQSPSSLSASVGDRVTITCRASQSINTYLNWYQQKPGKAPKLLIYVASSLQSGVPSRFSGSGSGTDFTLTISSLQPEDFATYYCQQSYSSPSITFGQGTRLEIK
B3: BD55-5248 (antibody, V domains shown)
VH: QVQLVESGGGVVQPGRSLRLSCAASGFTFSSYDMYWVRQAPGKGLEWVAVISYDGSSNFYADSVKGRFTISRDNSRNTLSLQMNSLRAEDTAVYFCARERREQLTPVFDHWGQGTLVTVSS
VL: DIQMTQSPSSLSASVGDRVTITCRASQSISSYLNWYQQRPGKAPKLLIYSASTLESGVPSRFSGSGSGTDFTLTINSLQPEDFATYYCQQSYSTLALTFGGGTKVEIK
B4: BD55-5238 (antibody, V domains shown)
VH: QEQLVESGGGVVQPGRSLRLSCAASGLTFSSYAMHWVRQAPGKGLEWVAVIWYNGLKKYYADSVKGRFTISRDNYKNTAYLQMSSLRAEDTAVYYCAREGGGDILTGNEFEFWGQGTLVTVSS
VL: QSVLTQPPSVSGAPGQTVTISCTGGSSNTGAGYDVHWYQQLPGTAPKLLIFANKNRPSGVPDRFSGSKSGTSASLSITGLQAEDEGDYYCQSYDSSLSGWVFGGGTKVTVL
B5: BD55-5219 (antibody, V domains shown)
VH: QVQLVQSGSELKRLGASVTLSCKASGYTFTNYAINWVRQAPGHGLQWMGWINPDTGTPTYAQGFAGRFVFSLDSSVSTSYLQIRSLKADDTAVYYCARDANQWPRNQWFGPWGQGTLVTVSS
VL: DIVLTQSPDSLAVSLGERATINCKSSHSVFYSSSNQNDLAWYQQKPGQPPKLLIYWASIRESGVPDRFSGSGSGTDFTLTISSLQAEDVAVYYCQQHYSTPLTFGGGTKVEIK
B6: BD55-5236 (antibody, V domains shown)
VH: QVQLVQSGAEVKKPGSSVKVSCKASGGTFTSQAISWVRQAPGQGLEWMGRIITVLGTTTYAQKFQGRLRITADRSTNTAYMDLTGLTSDDTAVYFCARDLDGYSGYDFGSSERRDSFYFDYWGQGTLVNVPS
VL: SSELTQDPPVSVALGQTVRITCQGDSLRTYYASWFQQKPGQAPLLVVYGKNYRPSGIPARFSGSFSGNTASLTITGAQAEDEADYYCNSRDSNNDHHVIFGGGTKLTVL
B7: BD55-5256 (antibody, V domains shown)
VH: QVQLVQSGTEVKKPGSSVKVSCKASGGPFSGYVINWVRQAPGQGLEWMGGIIPVFETVKYAQKFQGRVTITAGESASTAYMELNSLRSEDTAVYYCAKSKYHSGYDVLTGRADFSLPFDYWGQGTLVTVSS
VL: DIQMTQSPSSLSASVGDRVIITCQASQDITNSLSWYQQKPGKAPKLLIYGAFNLETGVPSRFSGSGSGTDFTFAISSLQPEDIATYFCQQYADLPYTFGQGTKLDIK
B8: BD55-5228 (antibody, V domains shown)
VH: QVHLVQSGSELKKPGASVKVSCKSSGHTFTIFAINWVRQAPGQGLEWMGWINTNTGNPTYAQGFTGRFVFSLDTSVNTAYLQISSLQPEDTAVYYCVGSNWGDYYFDPWGQGTLVTVSS
VL: EIVMTQSPATLSVSPGERATLSCRASYSLSSNLAWYQQKPGQAPRLLIYGASIRATGFPARFSGNGSGTEFTLTISSLQSEDFAVYYCQQYTSWPLTFGQGTKVEIK
B9: BD55-5242 (antibody, V domains shown)
VH: QVQLVQSGAEVKKPGASVKVSCKAFGYTFNSNYIHWVRQAPGQGLEWMGVIDPSGGATSYAQKFQGRVTMTRDTSTNTVYMELSSLRSEDTAVYYCARDLGDDVSRGYSGYDFLDLYGMDVWGQGTTVTVS
VL: not shown
B10: BD55-5239 (antibody, V domains shown)
VH: QVQLQESGPGLVRPSQTLSLTCSVSGGSISSGTYNWAWIRQPPGKDLEWIGHIYHSGSTYYNPSLRSRVNMSVDTSKNQFSLKLSSVTAADTAVYYCARERGPIAEFDFWGQGILVTVSS
VL: DIQMTQSPSSVSASIGDGVTITCRASQGISSWLAWYQQRPGKAPKLLISAAFTLQSGVPSRFSARGSGTDFTLIISNLQPEDFATYYCQQANSFPPTFGQGTKLEIK
B11: BD55-5233 (antibody, V domains shown)
VH: EVQLLESGGGLVQPGGSLRLSCAASGFTFSRSSMGWVRQAPGKGLEWVSTISEDGYTPYYADSVKGRFTISRDNSENRLFLQMNGLRAEDTALYYCAKDVDFDKWRQTCFDSWGQGALVTVSS
VL: QSVLTQPPSVSGAPGQRVTISCTGSNSNIGAGYDVHWYQQLPGTAPKLLIYGNNNRPSGVPDRFSGSKSGTSASLAITGLQAEDEADYYCQSYDSSLNVLYVFGTGTRVTVL
B12: BD55-5245 (antibody, V domains shown)
VH: QVQLVQSGAEVKKPGSSVKVSCKASGGSLSSDGINWVRQAPGQGLEWLGRIIPIPGIADNAQKFQGRVTITADKSTSTAYMELSSLRSEDTAVYYCARAPPRGYSGYDLLGNDAFDIWGQGTMVTVSS
VL: B11 VL with N26S, I50L, N54T, S65T, S95T, N98S, V99G, L100S, R108K, T110A
B13: BD55-5250 (antibody, V domains shown)
VH: QVQLVQSGAEVKKPGASVKVSCKASGYTFTSNAIHWVRQAPGQRLEWMGWIMADNGYTKYSENFQGRVTITRDTSASTVYMEVSSLRSGDTAVYYCAREGSMWYSTYFDHWGQGTLVTVSS
VL: DIQMTQSPSSLSASVGDRVTITCRASQSISSYLTWYQQKSGTAPKLLIYAASSLQSGVPSRFSGSGSGTDFTLTISSLQPEDFATYYCQQSYTDPFTFGPGTKVDFK
B14: BD55-5215 (antibody, V domains shown)
VH: EVQLVESGGGLGQPGGSLRLSCAASGFTFSRYGMGWVRQAPGKGLEWVSVISGSGGATYYADSVKGRFTISRDNSKNTLFLQMNSLRVEDTAVYYCAKDGGQLQLVEIFTFDPWGRGTLVTVSS
VL: DIQMTQSPSSLSASVGDRVTITCRASQGIRNSLAWYQQKPGKAPKLLLYAASRLESGVPSRFSGSGSGTDYTLTISSLQPEDFATYYCQQYYSAWTFGQGTKVEIK
B15: BD55-5251 (antibody, V domains shown)
VH: QITLKESGPALVKPTQTLTLTCTFSGFSLSSNGVGVGWIRQSPGKALEWLALIYWDDDKRYTPSLKKRLTVTKDTSKNQVVLTMTNMDPVDTATYYCAHMARPRGLFINPSWFDPWGQGTLVTVSS
VL: QSVLTQPPSASGTPGQRVTISCSGSSSNIGSNTIDWYQQLPGTAPRLLIYGHDLRPSGVPDRFSGSQSGTSASLVISGLQSEDEADYYCAAWDDSLNGPVFGGGTKLTVL
B16: BD55-5259 (antibody, V domains shown)
VH: QITLKESGPTLVKPTQTLTLTCTFSGFSLTMPEVGVAWVRQPPGKALEWLALIYGDDNKRYSPSLESRLTITKDSSKNQVVLTMTNLDSVDTATYYCARRKFLWDSDPVAFDYWGLGTLVIVSS
VL: DIVMTQTPLSLPVTLGQPASISCRSSQSLVHIDGNIYLSWLQQRPGQPPRLLIYKISNRFSGVPDRFSGSGSGTDFTLKISRVEAEDVGVYYCMQATQFPHEMYTFGQGTKLEIR

Target: SARS-CoV-2 (WT) Spike RBD Protein (His Tag) (SARS-CoV-2 ancestral (Wuhan-Hu-1), UniProt P0DTC2)

Row | Binder | binding result
1 | B1 | binds
2 | B2 | binds
3 | B3 | binds
4 | B4 | binds
5 | B5 | binds
6 | B6 | binds
7 | B7 | binds
8 | B8 | binds
9 | B9 | binds
10 | B10 | binds
11 | B11 | binds
12 | B12 | binds
13 | B13 | binds
14 | B14 | binds
15 | B15 | binds
16 | B16 | binds
